Reference: PMC1277818, “Substrate specificity analysis of protein kinase complex Dbf2-Mob1 by peptide library and proteome array screening” (BMC Biochemistry, 2005)

B1: YBR118W: GST fusion yeast protein on proteome chip (protein, UniProt P02994 2-458, looked up)
Elongation factor 1-alpha: GKEKSHINVVVIGHVDSGKSTTTGHLIYKCGGIDKRTIEKFEKEAAELGKGSFKYAWVLDKLKAERERGITIDIALWKFETPKYQVTVIDAPGHRDFIKNMITGTSQADCAILIIAGGVGEFEAGISKDGQTREHALLAFTLGVRQLIVAVNKMDSVKWDESRFQEIVKETSNFIKKVGYNPKTVPFVPISGWNGDNMIEATTNAPWYKGWEKETKAGVVKGKTLLEAIDAIEQPSRPTDKPLRLPLQDVYKIGGIGTVPVGRVETGVIKPGMVVTFAPAGVTTEVKSVEMHHEQLEQGVPGDNVGFNVKNVSVKEIRRGNVCGDAKNDPPKGCASFNATVIVLNHPGQISAGYSPVLDCHTAHIACRFDELLEKNDRRSGKKLEDHPKFLKSGDAALVKFVPSKPMCVEAFSEYPPLGRFAVRDMRQTVAVGVIKSVDKTEKAAKVTKAAQKAAKK
modifications: GST tag
notes: GST fusion yeast protein on proteome chip
B2: YNL101W: GST fusion yeast protein on proteome chip (protein, UniProt P50944 1-713, looked up)
Vacuolar amino acid …: MVTNNGDGEHLGIRRNGNLRHPSNNMKIPRRAQSTVLNSNPFYSRKYSMSTLTPRDICRSVDSRVFVDMSSPNFQTLEDPHRDEIINSVRLNYLNSSKRSSVSHGNEAIPRVNPTKNSSASTIAAANVDSDDDETNLSSAGGDITHDIYKLVKAEDPKRLRRPRSMENVTPKIEHHTKLSSASGLNVPGGFRREFIVNKKRQEHQLNDSASSDFTSHESDSINQSSPSSNQDIDKVPFLTRNFLEFLYVFGHFAGESFEDDFIPDSSNMMIRGEDERSALLSRPDHMKVLPSAKGTTSTKKVFLILLKSFIGTGVLFLPNAFHNGGLFFSVSMLAFFGIYSYWCYYILVQAKSSCGVSSFGDIGLKLYGPWMRIIILFSLVITQVGFSGAYMIFTAKNLQAFLDNVFHVGVLPLSYLMVFQTIIFIPLSFIRNISKLSLPSLLANFFIMAGLVIVIIFTAKRLFFDLMGTPAMGVVYGLNADRWTLFIGTAIFAFEGIGLIIPVQDSMRNPEKFPLVLALVILTATILFISIATLGYLAYGSNVQTVILLNLPQSNIFVNLIQLFYSIAIMLSTPLQLFPAIKIIENKFFPKFTKIYVKHDDLTTRVELRPNSGKLNWKIKWLKNFIRSIIVIIVVSIAYFGSDNLDKFVSVIGSLACIPLVYIYPSMLHLRGNSLPETKGEFWRFKPMLDTILIFFGIASMLYTSYQSIFGV
modifications: GST tag
notes: as for B1
B3: YMR239C: GST fusion yeast protein on proteome chip (protein, UniProt Q02555 1-471, looked up)
Ribonuclease 3: MGSKVAGKKKTQNDNKLDNENGSQQRENINTKTLLKGNLKISNYKYLEVIQLEHAVTKLVESYNKIIELSPNLVAYNEAVNNQDRVPVQILPSLSRYQLKLAAELKTLHDLKKDAILTEITDYENEFDTEQKQPILQEISKADMEKLEKLEQVKREKREKIDVNVYENLNEKEDEEEDEGEDSYDPTKAGDIVKATKWPPKLPEIQDLAIRARVFIHKSTIKDKVYLSGSEMINAHNERLEFLGDSILNSVMTLIIYNKFPDYSEGQLSTLRMNLVSNEQIKQWSIMYNFHEKLKTNFDLKDENSNFQNGKLKLYADVFEAYIGGLMEDDPRNNLPKIRKWLRKLAKPVIEEATRNQVALEKTDKLDMNAKRQLYSLIGYASLRLHYVTVKKPTAVDPNSIVECRVGDGTVLGTGVGRNIKIAGIRAAENALRDKKMLDFYAKQRAAIPRSESVLKDPSQKNKKRKFSDTS
modifications: GST fusion
notes: as for B1
B4: YNR006W: GST fusion yeast protein on proteome chip (protein, UniProt P40343 1-622, looked up)
Vacuolar protein …: MSVSTPSELDALIEQATSESIPNGDLDLPIALEISDVLRSRRVNPKDSMRCIKKRILNTADNPNTQLSSWKLTNICVKNGGTPFIKEICSREFMDTMEHVILREDSNEELSELVKTILYELYVAFKNDSQLNYVAKVYDKLISRGIKFPEKLTLSNSPTAMFDSKTPADWIDSDACMICSKKFSLLNRKHHCRSCGGVFCQEHSSNSIPLPDLGIYEPVRVCDSCFEDYDLKRHDDSKKSKKHRHKRKKDRDYSTPEDEEELIRKAIELSLKESRNSASSEPIVPVVESKNEVKRQEIEEEEDPDLKAAIQESLREAEEAKLRSERQKASRQMQPQQPSPQPQPIHSVDLSDEEKDSIYMFASLVEKMKSRPLNEILEDSKLQNLAQRVFASKARLNYALNDKAQKYNTLIEMNGKISEIMNIYDRLLEQQLQSINLSQQYTLPQVPSDPYNYLTENVQNPAESYQTPPLQQLSSHQYKPQQDVSRQQSVKANSSPTTNIDHLKTIDVTPHAQQKPQSHVELAPSDPPYPKEEAEDEGTQAVQDEESSTQESRERPYPVETENGETSINKRPQGITRYDFPTVPARKFVQPESTVPLPASSSEIPIKEERPPSPQEELLIEL
modifications: GST fusion
notes: as for B1
B5: YIL135C: GST fusion yeast protein on proteome chip (protein, UniProt P40463 1-436, looked up)
Protein VHS2: MDTSNHNQDHDSHVAAQRENDNNYMPPSPSMSESSMIFERNVEDPSYLYKTVSNNAANSLSRQSSRTSLFNHNNSSNRNFHNLSQRSSAVNLHLQPSRTNESIASYQTYNPDFVVQTPLDHRRTLENFVPPALDAGCSIVTDDTTGLDDVDMVYSRRPSTIGLDRALGRTRSLSSQSFDNETSPAHPRSPNDHGSRLLRFYSYADMLSDDNNNNVSNATSTSSTANPLRRPPMQGHYSFSSSLLNSPSHLPSPPSASASPPQHMNFTNPFIISRRYSNTTINNANGGTSAGSTTGAALSRSPSNQQYLLKQQRSPSGSARSRRNSNRPGSAANIMIGKPKSKFHMESSGSEGFSSEEEDNTMIERDKLNLKQKLQSQLAQPPSIANMVNDNHNNTNKHKNTINNNIKNSPAFTNSNPSSKSNSNSTITSMNPDTTK
modifications: GST tag
notes: as for B1
B6: YDL019C: GST fusion yeast protein on proteome chip (protein, UniProt Q12451 2-1283, looked up)
Oxysterol-binding protein …: SREDLSIAEDLNQVSKPLLKVKLLEVLGQGDFKHLKALVDNEFQPKDDPSVQQVLNLILHYAVQVAPILLIKEIVAHWVDQVGDEKSSSKSDDGIHLDLNYQDENGNTPLHLAAAQSRSDVISFLLSQKSINDCVKNKAHQQPLDMCKDLNVAQMIQLKRDDYFLETVHSLRAAMNKRDFSKLDSIWKNPRNLNLLDINGIDPETGTTLLYEYSQKKDIEMCQWLLKHGAEATVKDGKGRSPLDLVKNIKLPAKPSNNVTPEIKLKNLLEKNLREQAIVHEDVASSKPPTYKGFLKKWTNFAHGYKLRWFILSGDGNLSYYKDQSHVDRPRGTLKVSTCRLHIDSSEKLNFELLGGITGTTRWRLKGNHPIETTRWVNAIQSAIRFAKDKEILNKKKAVPPSLALKNKSPALISHSKTQGSLPEASQYYQHTLHKEVIQPSSVSLYRRPSNNLSVVSSEIQLNDNLTESGKRFVSKMIENRLDGSKTPVGVHTGSALQRVRSSNTLKSNRSMQSGSGVASPIDKVPNGANLSQSNTTTGSTASLSDNNYIDNFEGDEANSDDEEEDLGINFDRDEEYIKAQYGPYKEKLDMYEQAISIELSSLIELIEQEEPSPEVWLTIKKSLINTSTIFGKLKDLTYKRDKRLVDMVSKQGDVNNVWVQSVKELEMELSNKTERLASIDKERRGLKKILHKKLLESHATAGNKESLENDKEQESDTTASTLGQIAKFISATKEEDEASDADEFYDAAELVDEVTELTEAHPEISTAAAPKHAPPPVPNETDNDSQYVQDEKSKIESNVEKTSQKFEKQNNLVTEDEPKTDQSLKNFKAEDKESQVKEKTKEIASSVIGEKTIVAVTTVQKRKEEYLLKEGSYLGYEDGIRKRLSMDKDDRPKISLWAVLKSMVGKDMTRMTLPVTFNEPTSLLQRVAEDLEYSELLDQAATFEDSTLRTLYVAAFTASSYASTTKRVAKPFNPLLGETFEYSRPDKQYRFFTEQVSHHPPISATWTESPRWDFWGESFVDTKFNGRSFNVKHLGLWHIKLRPNDNEKEELYTWKKPNNTVIGILIGNPQVDNHGEVNVVNHTTGDHCKLYFKARGWRSSGAYEITGEVYNKKKQKVWILGGHWNEAIFAKKVVKDGDLSLEKTRTAASAGNGPTDDGTKFLIWKANDRPEEPFNLTPFAITLNAPQPHLLPWLPPTDTRLRPDQRAMEDGRYDEAGDEKFRVEEKQRAARRKREENNLEYHPQWFVRDTHPITKAKYWRYTGKYWVKRRDHDLKDCGDIF
modifications: GST fusion
notes: as for B1

Biological target: T1, FHHDbf2-H6Mob1TM9 (Saccharomyces cerevisiae, UniProt P22204+P40484)
T1 construct: made in house; host or cells: Hi5 insect cells (baculovirus)
T1 sequence (P22204 1-572): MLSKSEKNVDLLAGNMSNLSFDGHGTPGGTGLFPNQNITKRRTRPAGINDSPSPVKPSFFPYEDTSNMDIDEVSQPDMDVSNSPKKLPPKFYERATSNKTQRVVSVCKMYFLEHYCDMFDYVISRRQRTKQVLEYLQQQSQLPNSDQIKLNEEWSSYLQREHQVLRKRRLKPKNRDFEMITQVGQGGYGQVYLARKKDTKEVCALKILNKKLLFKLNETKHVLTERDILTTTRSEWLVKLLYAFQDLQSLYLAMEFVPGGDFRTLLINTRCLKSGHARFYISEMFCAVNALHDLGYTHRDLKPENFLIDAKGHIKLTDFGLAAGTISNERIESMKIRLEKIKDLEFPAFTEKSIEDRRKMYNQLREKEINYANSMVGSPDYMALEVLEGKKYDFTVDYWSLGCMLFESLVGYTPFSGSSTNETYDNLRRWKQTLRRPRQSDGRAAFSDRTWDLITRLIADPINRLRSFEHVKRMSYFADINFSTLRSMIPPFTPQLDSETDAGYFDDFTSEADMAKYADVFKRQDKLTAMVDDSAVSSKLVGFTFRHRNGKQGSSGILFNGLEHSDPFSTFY
T1 sequence (P40484 1-314 partner): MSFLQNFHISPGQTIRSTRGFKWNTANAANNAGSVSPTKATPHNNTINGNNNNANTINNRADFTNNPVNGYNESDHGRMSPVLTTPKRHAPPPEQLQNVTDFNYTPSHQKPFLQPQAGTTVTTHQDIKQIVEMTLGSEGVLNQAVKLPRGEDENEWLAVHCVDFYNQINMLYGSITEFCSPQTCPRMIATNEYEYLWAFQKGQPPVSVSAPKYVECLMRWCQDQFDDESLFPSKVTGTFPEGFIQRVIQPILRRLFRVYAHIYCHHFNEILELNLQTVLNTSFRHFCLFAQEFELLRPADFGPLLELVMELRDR
Assay: Yeast proteome chip assay
Format: biochemical
Settings: [γ-33P]ATP, chips in duplicate
Protocol: The relatively low sequence complexity of the Dbf2 phosphorylation motif diminished the power of using genome-wide bioinformatics screens to identify putative substrates. Accordingly, we carried out a proteome array screen to identify putative yeast substrates. […] After taking into account the proteins phosphorylated in the negative controls, 67 proteins were determined to be putative Dbf2-Mob1 substrates (Table 3).
Yeast proteome microarrays were prepared as previously described. Overexpressed GST-tagged yeast proteins were purified from ~4,400 yeast strains and spotted on slides. To determine the optimal amount of kinase to use for probing proteome chips, we performed trial assays as described (J. Ptacek et al., submitted). […] The full proteome array was probed with 4 μl ^FHHDbf2-^H6Mob1^TM9 in 200 μl of DKB supplemented with [γ-^33P]ATP. As a control, ^FHHDbf2(N305A)-^H6Mob1^TM9 was used to probe the proteome array. […] To control for autophosphorylated proteins, the proteome array was probed with 200 μl of DKB supplemented with [γ-^33P]ATP. Proteome chips were assayed in duplicate in each case. Data analysis was performed as described (J. Ptacek et al., submitted). Briefly, signals were analyzed by a computer algorithm designed to normalize background and identify signals as positive if 3 of 4 spots (each protein is spotted twice on each slide and each kinase or control was tested on 2 slides) were 2 standard deviations above background and the fourth spot was 1.5 standard deviations above background.

[1] = Table 3, GST fusion proteins on proteome chip, computer analysis
[2] = Table 4, the 25 proteins with highest signal relative to protein amount

| Molecule | Slide Signal (after normalization) [1] | Slide Signal (after normalization) [2] |
| --- | --- | --- |
| B1 | 2.619 | 2.619 |
| B2 | 2.1486 | 2.1486 |
| B3 | 1.593 | 1.593 |
| B4 | 1.1429 | 1.1429 |
| B5 | 1.116 | 1.116 |
| B6 | 0.9962 | 0.9962 |
